{
  "source": "patent US6358505",
  "about": "(dated 2002)",
  "molecules": {"B1": {"name": "G-CSF receptor agonist expressed from pMON25182 (ligand)", "chain": "AMAPALQPTQGAMPAFASAFQRRAGGVLVASHLQSFLEVSYRVLRHLAQPTPLGPASSLPQSFLLKSLEQVRKIQGDGAALQEKLCATYKLCHPEELVLLGHSLGIPWAPLSSCPSQALQLAGCLSQLHSGLFLYQGLLQALEGISPELGPTLDTLQLDVADFATTIWQQMEELG"}, "B2": {"name": "G-CSF receptor agonist expressed from pMON3450 (ligand)", "chain": "AYKLCHPEELVLLGHSLGIPWAPLSSCPSQALQLAGCLSQLHSGLFLYQGLLQALEGISPELGPTLDTLQLDVADFATTIWQQMEELGMAPALQPTQGAMPAFASAFQRRAGGVLVASHLQSFLEVSYRVLRHLAQPTPLGPASSLPQSFLLKSLEQVRKIQGDGAALQEKLCAT"}, "B3": {"name": "G-CSF receptor agonist expressed from pMON25187 (ligand)", "chain": "ATQGAMPAFASAFQRRAGGVLVASHLQSFLEVSYRVLRHLAQPSGGSGGSQSFLLKSLEQVRKIQGDGAALQEKLCATYKLCHPEELVLLGHSLGIPWAPLSSCPSQALQLAGCLSQLHSGLFLYQGLLQALEGISPELGPTLDTLQLDVADFATTIWQQMEELGMAPALQP"}, "B4": {"name": "G-CSF receptor agonist expressed from pMON3499 (ligand)", "chain": "LLGHSLGIPWAPLSSCPSQALQLAGCLSQLHSGLFLYQGLLQALEGISPELGPTLDTLQLDVADFATTIWQQMEELGMAPALQPTQGAMPAFASAFQRRAGGVLVASHLQSFLEVSYRVLRHLAQPTPLGPASSLPQSFLLKSLEQVRKIQGDGAALQEKLCATYKLCHPEELV"}, "B5": {"name": "G-CSF receptor agonist expressed from pMON25188 (ligand)", "chain": "ASAFQRRAGGVLVASHLQSFLEVSYRVLRHLAQPSGGSGGSQSFLLKSLEQVRKIQGDGAALQEKLCATYKLCHPEELVLLGHSLGIPWAPLSSCPSQALQLAGCLSQLHSGLFLYQGLLQALEGISPELGPTLDTLQLDVADFATTIWQQMEELGMAPALQPTQGAMPAFA"}, "B6": {"name": "G-CSF receptor agonist expressed from pMON25186 (ligand)", "chain": "AMAPALQPTQGAMPAFASAFQRRAGGVLVASHLQSFLEVSYRVLRHLAQPSGGSGGSQSFLLKSLEQVRKIQGDGAALQEKATYKLCHPEELVLLGHSLGIPWAPLSSCPSQALQLAGCLSQLHSGLFLYQGLLQALEGISPELGPTLDTLQLDVADFATTIWQQMEELG"}, "B7": {"name": "G-CSF receptor agonist expressed from pMON25184 (ligand)", "chain": "ASAFQRRAGGVLVASHLQSFLEVSYRVLRHLAQPTPLGPASSLPQSFLLKSLEQVRKIQGDGAALQEKLCATYKLCHPEELVLLGHSLGIPWAPLSSCPSQALQLAGCLSQLHSGLFLYQGLLQALEGISPELGPTLDTLQLDVADFATTIWQQMEELGMAPALQPTQGAMPAFA"}, "B8": {"name": "G-CSF receptor agonist expressed from pMON25183 (ligand)", "chain": "ATQGAMPAFASAFQRRAGGVLVASHLQSFLEVSYRVLRHLAQPTPLGPASSLPQSFLLKSLEQVRKIQGDGAALQEKLCATYKLCHPEELVLLGHSLGIPWAPLSSCPSQALQLAGCLSQLHSGLFLYQGLLQALEGISPELGPTLDTLQLDVADFATTIWQQMEELGMAPALQP"}, "B9": {"name": "G-CSF receptor agonist expressed from pMON3455 (ligand)", "chain": "AYKLCHPEELVLLGHSLGIPWAPLSSCPSQALQLAGCLSQLHSGLFLYQGLLQALEGISPELGPTLDTLQLDVADFATTIWQQMEELGMAPALQPTQGAMPAFASAFQRRAGGVLVASHLQSFLEVSYRVLRHLAQPSGGSGGSQSFLLKSLEQVRKIQGDGAALQEKLCAT"}},
  "data": [
    {"biological_target": "T1, human G-CSF receptor (human, UniProt Q99062 25-836)", "T1 sequence (looked up)": "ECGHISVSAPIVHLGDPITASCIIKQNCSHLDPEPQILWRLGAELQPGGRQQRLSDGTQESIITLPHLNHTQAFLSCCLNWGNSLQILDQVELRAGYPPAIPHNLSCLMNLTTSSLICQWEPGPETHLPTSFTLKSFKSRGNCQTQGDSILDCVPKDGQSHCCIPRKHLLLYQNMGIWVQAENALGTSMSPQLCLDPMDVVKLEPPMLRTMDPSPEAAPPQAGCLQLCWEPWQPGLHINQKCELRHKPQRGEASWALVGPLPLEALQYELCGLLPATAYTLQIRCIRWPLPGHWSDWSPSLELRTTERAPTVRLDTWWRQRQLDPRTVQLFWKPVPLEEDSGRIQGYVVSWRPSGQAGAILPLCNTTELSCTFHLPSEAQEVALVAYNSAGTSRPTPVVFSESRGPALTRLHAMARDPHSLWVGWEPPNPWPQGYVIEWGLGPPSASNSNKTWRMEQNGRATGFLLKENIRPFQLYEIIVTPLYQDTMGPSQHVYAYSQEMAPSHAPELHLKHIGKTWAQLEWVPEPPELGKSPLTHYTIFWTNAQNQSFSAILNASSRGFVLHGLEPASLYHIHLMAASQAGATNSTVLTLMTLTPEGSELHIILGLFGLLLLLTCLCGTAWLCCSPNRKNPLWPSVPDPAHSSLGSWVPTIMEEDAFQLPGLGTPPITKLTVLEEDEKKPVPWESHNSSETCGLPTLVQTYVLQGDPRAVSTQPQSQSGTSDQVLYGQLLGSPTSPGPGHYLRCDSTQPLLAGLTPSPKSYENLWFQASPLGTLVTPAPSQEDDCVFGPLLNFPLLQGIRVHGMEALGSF", "experiment": "cell-based or functional assay", "units": {"EC50 (pM), Baf/3-G-CSF cell proliferation assay": "pM"}, "values": [
      {"molecule": "native G-CSF (from UniProt P09919 31-204) (ligand)", "EC50 (pM), Baf/3-G-CSF cell proliferation assay": 60},
      {"molecule": "B1", "EC50 (pM), Baf/3-G-CSF cell proliferation assay": 38},
      {"molecule": "B2", "EC50 (pM), Baf/3-G-CSF cell proliferation assay": 121},
      {"molecule": "B3", "EC50 (pM), Baf/3-G-CSF cell proliferation assay": 83},
      {"molecule": "B4", "EC50 (pM), Baf/3-G-CSF cell proliferation assay": 137},
      {"molecule": "B5", "EC50 (pM), Baf/3-G-CSF cell proliferation assay": 41},
      {"molecule": "B6", "EC50 (pM), Baf/3-G-CSF cell proliferation assay": 92},
      {"molecule": "B7", "EC50 (pM), Baf/3-G-CSF cell proliferation assay": 70},
      {"molecule": "B8", "EC50 (pM), Baf/3-G-CSF cell proliferation assay": 58},
      {"molecule": "B9", "EC50 (pM), Baf/3-G-CSF cell proliferation assay": 102}
    ]}
  ]
}
